In US20100196398A1 (AstraZeneca / MedImmune, published 2010):
Changes are numbered by the printed parent chain. One block for each binder: values may come before it.

What was measured:
[1] = target: T1, human CD105 (human, UniProt P17813 26-658); assay: FACS competition on HUVEC cells: unlabeled mAb at 50 ug/ml, wash, then FITC-labeled SN6 at 2 ug/ml; blocked antibody: SN6
T1 construct: whole, on cells; Target as carried by HUVEC cells in the FACS assays; also called endoglin; END
T1 sequence (looked up): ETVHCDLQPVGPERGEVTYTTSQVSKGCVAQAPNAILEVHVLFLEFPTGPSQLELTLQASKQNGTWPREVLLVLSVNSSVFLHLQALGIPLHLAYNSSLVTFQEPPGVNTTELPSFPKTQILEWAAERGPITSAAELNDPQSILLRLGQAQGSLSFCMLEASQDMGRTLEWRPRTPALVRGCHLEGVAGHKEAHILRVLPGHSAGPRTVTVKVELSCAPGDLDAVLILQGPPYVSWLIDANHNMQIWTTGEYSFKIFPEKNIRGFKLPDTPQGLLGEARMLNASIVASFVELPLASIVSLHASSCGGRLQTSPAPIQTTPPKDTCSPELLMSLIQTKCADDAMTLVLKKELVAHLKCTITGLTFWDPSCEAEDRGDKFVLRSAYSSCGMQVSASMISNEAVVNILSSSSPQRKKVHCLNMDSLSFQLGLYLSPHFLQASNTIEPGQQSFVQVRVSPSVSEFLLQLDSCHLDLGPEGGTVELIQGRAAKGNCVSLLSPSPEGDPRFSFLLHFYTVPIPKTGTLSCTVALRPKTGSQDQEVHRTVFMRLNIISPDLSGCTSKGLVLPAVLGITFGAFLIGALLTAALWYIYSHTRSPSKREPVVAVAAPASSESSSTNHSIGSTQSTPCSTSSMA

[2] = target: T1, human CD105; assay: FACS KD determination on HUVEC cells, 4° C., nonlinear fit of geometric mean fluorescence
Experimental: The affinity of the anti-CD105 antibodies was determined by FACS. […] Cells were kept on ice. Purified antibodies were serially diluted in filtered 1×PBS (2×) across 11 wells in 96-well plates. The twelfth well in each row contained buffer only. Cells and 1×PBS were added to each mAb well such that the final volume was 30 μL/well and each well contained approximately 100,000 cells. Plates were placed on a plate shaker for 3 hours at 4° C., then spun and washed 3 times with PBS. A fluorochrome-labeled secondary goat α-human polyclonal antibody was added to each well in a 200 μL volume. Plates were then incubated for 40 minutes at 4° C., then spun and washed 3 times with PBS.
The Geometric Mean Fluorescence (GMF) of 10,000 cells for each mAb concentration was determined using a FACSCalibur instrument. A nonlinear plot of GMF as a function of molecular mAb concentration was fit using Scientist software using the equation:
In the above equation, F=Geometric mean fluorescence, LT=total molecular mAb concentration, P′=proportionality constant that relates arbitrary fluorescence units to bound mAb, and KD=equilibrium dissociation constant. For each mAb an estimate for KD was obtained as P′ and KD were allowed to float freely in the nonlinear analysis.

Max % Bloc(king) of SN6 binding [1]: 5.1%
Kd [2]: 0.622 nM
B1: fully human monoclonal antibody 4D4 (antibody, V domains shown)
VH: QVQLVESGGGVVQPGRSLRLSCAASGFTFSSYGMHWVRQAPGKGLEWVAVIWYDGSNKYYADSVKGRFTISRDNSKNTLYLQMNSLRAEDTAVYYCARVLGATGGYYYYYGMDVWGQGTTVTVSS
VL: not shown
notes: XenoMouse hybridoma antibody of Campaign 2 (IgG2 and IgG4 strains); also called 4D4.1

Max % Bloc(king) of SN6 binding [1]: 9%
Kd [2]: < 0.748 nM
B2: fully human monoclonal antibody 10C9 (antibody, V domains shown)
VH: QVQLVESGGGVVQPGRSLRLSCAASGFTFRSYGMHWVRQAPGKGLEWVAVIWYDGSNKYYADSVKGRFTISRDNSKNTLDLQMNSLRAEDTAVYYCARDRIAAARYYNGMDVWGQGTTVTVSS
VL: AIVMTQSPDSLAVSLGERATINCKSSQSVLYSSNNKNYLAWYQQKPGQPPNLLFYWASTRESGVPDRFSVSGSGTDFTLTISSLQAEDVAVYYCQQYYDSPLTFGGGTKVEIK
notes: XenoMouse hybridoma antibody of Campaign 2 (IgG2 and IgG4 strains); also called 10C9.2

Max % Bloc(king) of SN6 binding [1]: 29.4%
Kd [2]: 0.338 nM
B3: fully human monoclonal antibody 11H2 (antibody, V domains shown)
VH: QVQLVESGGGVVQPGRSLRLSCAASGFSFSSYGMHWVRQAPGKGLDWVAIIWYDGSYKYYADSVKGRFTISRDNSKNTLSLQMNSLRAEDTAVYYCARDGKYPFDYWGQGTLVTVSS
VL: SYVLTQPPSVSVAPGQTARITCGGNNIGSKSVHWYQQKPGQAPVLVVYDDSDRPSGIPERFSGSNSGNTATLTISRVEAGDEADYYCQVWDRSSDHVVFGGGTKLTVL
notes: XenoMouse hybridoma antibody of Campaign 2 (IgG2 and IgG4 strains); also called 11H2.1

Max % Bloc(king) of SN6 binding [1]: 81.9%
Kd [2]: < 0.584 nM
B4: fully human monoclonal antibody 9H10 (antibody, V domains shown)
VH: QVQLVESGGGVVQPGRSLRLSCAASGFAFINYGMHWVRQAPGKGLDWVAVISYDGSNKYYTDSVKGRFTISRDNSKNTLYLQMNSLRAEDTAVYYCARDLMGATLFDNWGQGTLVTVSS
VL: B3 VL with T21S, Y35F, R92S
notes: XenoMouse hybridoma antibody of Campaign 2 (IgG2 and IgG4 strains immunised with B300.19/human CD105 cells); also called 9H10.2

Max % Bloc(king) of SN6 binding [1]: 96.9%
Kd [2]: < 0.149 nM
B5: fully human monoclonal antibody 6B10 (antibody, V domains shown)
VH: QEQLVESGGGVVQPGRSLRLSCTASGFTFSNYGIHWVRQAPGKGLEWVTVISYDGSKKYYADSVKGRFTISRDNSKNTLYLQMNSLRAEDTAVYYCARAFSTMVRGVDHWGQGTLVTVSS
VL: DIQMTQSPSSLSASVGDRVTITCQASQDIYKSLNWYQQRPGKAPNLLIYDASNLETGVPSRFSGSGSGTDFTFTISSLQPEDFARYFCQQYDNLPLTFGGGTRVEIK
notes: XenoMouse hybridoma antibody of Campaign 2 (IgG2 and IgG4 strains); also called 6B10.1; mAb 6B10

Max % Bloc(king) of SN6 binding [1]: 57%
Kd [2]: < 0.717 nM
B6: fully human monoclonal antibody 4.37 (antibody, V domains shown)
VH: QVQLVESGGGVVQPGRSLRLSCAASGFTFSDYGMHWVRQAPGKGLEWVAVIWYDGSNKYYADSVKGRFTISRDNSKNTLYLQMNSLRAEDTAVYYCARAAGFYYYYGMDVWGQGTTVTVSS
VL: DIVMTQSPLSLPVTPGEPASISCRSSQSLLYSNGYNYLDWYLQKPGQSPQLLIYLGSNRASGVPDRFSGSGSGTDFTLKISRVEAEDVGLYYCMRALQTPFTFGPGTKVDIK
notes: XenoMouse hybridoma antibody of Campaign 1 (IgG1 and IgG4 strains immunised with soluble CD105); also called mAb 4.37; 4.37κ

Max % Bloc(king) of SN6 binding [1]: 20.5%
Kd [2]: 2.3 nM
B7: fully human monoclonal antibody 6B1 (antibody, V domains shown)
VH: QVQLVESGGGVVQPGRSLRLSCAASGFTFSSYGMHWVRQAPGKGLEWVAVIWYDGSNKYYADSVKGRFTISRDNSKNTLYLQMNSLRAEDTAVYYCVRDYSSGWYWGQGTLVTVSS
VL: SYELTQPPSVSVSPGQTARITCSGDALPKKYAYWYQQKSGQAPVLVIYEDSKRPSGIPERFSGSSSGTMATLTISGAQVEDEADYSCYSIDSSVNHVVFGGGTKLTVL
notes: XenoMouse hybridoma antibody of Campaign 2 (IgG2 and IgG4 strains); also called 6B1.1

Max % Bloc(king) of SN6 binding [1]: 29.4%
Kd [2]: 0.77 nM
B8: fully human monoclonal antibody 4.120 (antibody, V domains shown)
VH: QVQLQESGPGLVKPSETLSLTCTVSGGSISSYYWSWIRQPAGKGLEWIGRIYTSGSTNYNPSLKSRVTMSVDTSKNQFSLKLSSVTAADTAVYYCARRDIGATIKGFDYWGQGTLVTVSS
VL: not shown
notes: XenoMouse hybridoma antibody of Campaign 1 (IgG1 and IgG4 strains immunised with soluble CD105); also called mAb 4.120

Max % Bloc(king) of SN6 binding [1]: 95.4%
Kd [2]: < 1.15 nM
B9: fully human monoclonal antibody 6A6 (antibody, V domains shown)
VH: EVQLLESGGGLVQPGGSLRLSCAASGFTFSSYAMSWVRQAPGKGLEWVSTISGGGHSTYYADSVKGRFTISRDNSKNTLYLQMNSLRAEDTAVYYCARIAPAGPHFDYWGQGTLVTVSS
VL: NFMLTQPHSVSESPGKTVTFSCTRSSGSIASNFVQWYQQRPGSSPTTVIYEHNQRPSGVPDRFSGSIDSSSSSASLTISGLKTEDEADYYCQFYDRNSHWVFGGGTKLTVL
notes: XenoMouse hybridoma antibody of Campaign 2 (IgG2 and IgG4 strains); also called 6A6.2
